Data taken from publication PMC10501992, “How Pol α-primase is targeted to replisomes to prime eukaryotic DNA replication” (Molecular Cell, 2023).

Tests used:
Assay in all cases: cryo-EM structure; budding yeast replisome: 150 nM CMG on fork DNA (39 nt 3′ flap, 60 nt 5′ flap) with 1.5-fold molar excess of Tof1-Csm3, Mrc1 and Pol α-primase; 25 mM HEPES-NaOH pH 7.6, 150 mM NaOAc, 0.5 mM TCEP, 500 μM AMP-PNP, 10 mM Mg(OAc)2, on ice; 10-30% glycerol gradient with glutaraldehyde and BS3 cross-linkers
[1] = target: T1, Pri2 (budding yeast primase accessory subunit) (S. cerevisiae, UniProt P20457 1-528); conditions: both partners purified
T1 construct: Pri2, S. cerevisiae; modelled residues 1-5 (N terminus), 44-177 and 181-299 (NTD); stood in the assay as a subunit of m1; also called Pri2NTD; Pri2_(Nterm); source: subunit of Pol α-primase from S. cerevisiae strain yAE95, purified as described previously
T1 sequence: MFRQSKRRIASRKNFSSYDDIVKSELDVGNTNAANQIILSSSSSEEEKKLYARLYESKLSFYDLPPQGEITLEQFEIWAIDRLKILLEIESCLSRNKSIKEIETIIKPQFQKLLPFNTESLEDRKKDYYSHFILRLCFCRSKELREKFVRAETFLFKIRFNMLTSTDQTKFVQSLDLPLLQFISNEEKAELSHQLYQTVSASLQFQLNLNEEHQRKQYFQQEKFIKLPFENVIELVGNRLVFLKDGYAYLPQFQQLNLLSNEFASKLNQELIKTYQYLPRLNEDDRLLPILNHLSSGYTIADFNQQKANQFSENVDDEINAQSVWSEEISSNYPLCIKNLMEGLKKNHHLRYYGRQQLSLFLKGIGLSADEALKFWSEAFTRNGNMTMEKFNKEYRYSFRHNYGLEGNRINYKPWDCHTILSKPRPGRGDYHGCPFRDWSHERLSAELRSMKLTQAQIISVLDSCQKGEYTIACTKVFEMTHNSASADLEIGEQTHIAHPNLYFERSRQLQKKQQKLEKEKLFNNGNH

[2] = target: the molecule itself
[3] = target: T2, budding yeast CMG (Cdc45-Mcm2-7-GINS) replicative helicase (S. cerevisiae, UniProt Q08032 1-650; P29469 1-868; P24279 1-971; P30665 1-933; P29496 1-775; P53091 …); conditions: both partners purified
T2 construct: Cdc45, S. cerevisiae; Mcm2, S. cerevisiae; Mcm3, S. cerevisiae; Mcm4, S. cerevisiae (named only within Mcm2-7); Mcm5, S. cerevisiae; Mcm6, S. cerevisiae (named only within Mcm2-7); Mcm7, S. cerevisiae (named only within Mcm2-7); Psf1, subunit of GINS, S. cerevisiae; Psf2, subunit of GINS, S. cerevisiae; Sld5, subunit of GINS, S. cerevisiae; source: S. cerevisiae strain yJY197, expressed and …

[4] = target: T3, Pol1 (budding yeast Pol α catalytic subunit) (S. cerevisiae, UniProt P13382 1-1468); conditions: both partners purified
T3 construct: Pol1, S. cerevisiae; modelled: CTD 1271-1468 and CIP box F140-S149; stood in the assay as a subunit of m1; also called Pol1CTD; Pol1CIP; source: subunit of Pol α-primase from S. cerevisiae strain yAE95, purified as described previously
T3 sequence: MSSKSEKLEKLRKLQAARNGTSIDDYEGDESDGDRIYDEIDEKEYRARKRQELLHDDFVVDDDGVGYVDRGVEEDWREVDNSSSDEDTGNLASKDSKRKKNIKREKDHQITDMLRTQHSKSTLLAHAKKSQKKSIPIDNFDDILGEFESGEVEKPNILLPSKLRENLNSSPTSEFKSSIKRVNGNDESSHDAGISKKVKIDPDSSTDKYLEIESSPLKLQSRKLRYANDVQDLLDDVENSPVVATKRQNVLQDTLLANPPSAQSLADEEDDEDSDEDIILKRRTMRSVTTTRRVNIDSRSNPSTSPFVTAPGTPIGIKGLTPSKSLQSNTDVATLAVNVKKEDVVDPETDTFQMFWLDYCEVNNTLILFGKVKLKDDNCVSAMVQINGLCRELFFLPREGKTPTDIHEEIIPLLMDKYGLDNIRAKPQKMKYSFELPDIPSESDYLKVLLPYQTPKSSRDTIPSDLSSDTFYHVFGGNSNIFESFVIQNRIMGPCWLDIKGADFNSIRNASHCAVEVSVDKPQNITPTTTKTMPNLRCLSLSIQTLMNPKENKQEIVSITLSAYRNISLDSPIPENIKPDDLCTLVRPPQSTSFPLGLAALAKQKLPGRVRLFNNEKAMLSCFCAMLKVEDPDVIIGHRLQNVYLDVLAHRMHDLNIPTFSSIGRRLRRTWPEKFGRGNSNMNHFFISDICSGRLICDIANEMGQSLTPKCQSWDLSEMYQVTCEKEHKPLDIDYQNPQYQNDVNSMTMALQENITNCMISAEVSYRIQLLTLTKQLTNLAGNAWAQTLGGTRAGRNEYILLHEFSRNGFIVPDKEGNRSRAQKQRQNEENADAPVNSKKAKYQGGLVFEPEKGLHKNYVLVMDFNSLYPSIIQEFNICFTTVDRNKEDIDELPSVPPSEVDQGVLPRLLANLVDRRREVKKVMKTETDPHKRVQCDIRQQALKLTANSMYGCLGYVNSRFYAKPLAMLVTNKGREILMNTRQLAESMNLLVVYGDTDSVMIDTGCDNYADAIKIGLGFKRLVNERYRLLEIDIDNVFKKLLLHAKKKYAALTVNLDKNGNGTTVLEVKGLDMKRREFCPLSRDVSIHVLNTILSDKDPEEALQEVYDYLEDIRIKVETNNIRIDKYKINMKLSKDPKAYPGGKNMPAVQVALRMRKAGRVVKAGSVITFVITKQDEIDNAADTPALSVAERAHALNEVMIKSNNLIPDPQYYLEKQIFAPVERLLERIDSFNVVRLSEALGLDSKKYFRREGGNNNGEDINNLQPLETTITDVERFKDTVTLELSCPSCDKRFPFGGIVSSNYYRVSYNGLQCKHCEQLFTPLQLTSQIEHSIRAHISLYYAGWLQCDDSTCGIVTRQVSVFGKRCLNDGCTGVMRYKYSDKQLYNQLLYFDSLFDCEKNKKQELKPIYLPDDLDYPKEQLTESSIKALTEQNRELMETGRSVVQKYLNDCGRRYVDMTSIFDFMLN

Mcm3 (budding yeast) = target: T4, Mcm3 (budding yeast) (S. cerevisiae, UniProt P24279 1-971); conditions: both partners purified
T4 construct: Mcm3, S. cerevisiae; stood in the assay as a subunit of m2; source: subunit of CMG from S. cerevisiae strain yJY197, purified as described previously
T4 sequence (P24279 whole entry): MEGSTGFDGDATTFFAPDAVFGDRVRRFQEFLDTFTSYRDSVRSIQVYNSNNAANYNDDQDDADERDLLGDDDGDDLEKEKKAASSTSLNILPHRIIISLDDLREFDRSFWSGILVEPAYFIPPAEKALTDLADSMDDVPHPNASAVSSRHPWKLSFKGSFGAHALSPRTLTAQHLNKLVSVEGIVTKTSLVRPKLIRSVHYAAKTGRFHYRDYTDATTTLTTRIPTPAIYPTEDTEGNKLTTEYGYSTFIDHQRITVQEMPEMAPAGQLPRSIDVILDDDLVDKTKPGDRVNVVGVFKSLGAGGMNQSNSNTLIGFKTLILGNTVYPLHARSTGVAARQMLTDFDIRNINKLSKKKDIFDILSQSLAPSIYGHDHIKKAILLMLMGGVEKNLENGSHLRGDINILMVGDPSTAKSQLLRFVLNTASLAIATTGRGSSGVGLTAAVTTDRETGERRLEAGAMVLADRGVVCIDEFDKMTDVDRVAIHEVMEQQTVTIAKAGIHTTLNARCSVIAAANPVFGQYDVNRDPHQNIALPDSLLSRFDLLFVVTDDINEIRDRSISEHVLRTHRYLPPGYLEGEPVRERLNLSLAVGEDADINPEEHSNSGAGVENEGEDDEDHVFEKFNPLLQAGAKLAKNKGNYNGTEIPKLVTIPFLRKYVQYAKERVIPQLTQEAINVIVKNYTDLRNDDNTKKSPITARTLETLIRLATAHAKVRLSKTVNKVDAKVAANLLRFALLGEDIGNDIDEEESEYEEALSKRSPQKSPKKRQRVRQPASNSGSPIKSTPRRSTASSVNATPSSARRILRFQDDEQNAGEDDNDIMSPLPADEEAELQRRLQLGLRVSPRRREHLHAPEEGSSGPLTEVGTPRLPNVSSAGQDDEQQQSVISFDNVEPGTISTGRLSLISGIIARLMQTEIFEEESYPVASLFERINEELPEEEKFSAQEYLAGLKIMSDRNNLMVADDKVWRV

B1: Psf2 (budding yeast GINS subunit) (natural protein, S. cerevisiae)
chain: MSLPAHLQQTFSPEEIQFIVENEPIKIFPRITTRQKIRGDDRGTGNHTRWQLITTDDKALNNMVAMRSTEVVLWIALLLKQQSKCSIVAPQWLTTKELDRKIQYEKTHPDRFSELPWNWLVLARILFNKAKDDFHDPIHELRGKIQDLREIRQIKVLKGLKYLNESHLQLDNLSLLEINELRPFITEIMDKLREIHTASLTAGTENDEEEFNI
notes: Psf2, subunit of GINS, S. cerevisiae; stood in the assay as a subunit of m2; source: subunit of CMG from S. cerevisiae strain yJY197, purified as described previously
- binding result [1]: binds

B2: Pri1 (budding yeast primase catalytic subunit) (natural protein, S. cerevisiae)
chain: MTNSVKTNGPSSSDMEYYYKSLYPFKHIFNWLNHSPKPSRDMINREFAMAFRSGAYKRYNSFNSVQDFKAQIEKANPDRFEIGAIYNKPPRERDTLLKSELKALEKELVFDIDMDDYDAFRTCCSGAQVCSKCWKFISLAMKITNTALREDFGYKDFIWVFSGRRGAHCWVSDKRARALTDVQRRNVLDYVNVIRDRNTDKRLALKRPYHPHLARSLEQLKPFFVSIMLEEQNPWEDDQHAIQTLLPALYDKQLIDSLKKYWLDNPRRSSKEKWNDIDQIATSLFKGPKQDSHIIKLRECKEDLVLMTLYPKLDVEVTKQTIHLLKAPFCIHPATGNVCVPIDESFAPEKAPKLIDLQTEMEKNNDVSLTALQPFINQFQAYVSSLLKNELGSVKREREDDDEPASLDF
notes: Pri1, S. cerevisiae; modelled aside from its flexible N and C termini; stood in the assay as a subunit of m1; source: subunit of Pol α-primase from S. cerevisiae strain yAE95, purified as described previously
- binding result [1]: binds

B3: Ctf4 (budding yeast) (natural protein, UniProt Q01454 1-927, looked up)
chain: MVSVIDKLVFDFGGKTLVSLAPDNNTLCVANKNGLTKILKTNNPEEEPETLDSSKLVSSIKCYSNSHFLMTTMQGDALRYNIDSSQEELLARFALPLRDCCVIHSGKMAVFGGDDLELILLELDDETHKKHAIKIDEQVSQISYNSQMNILAVSMINGKVQIFSLTSTIPNKVHELNDYIVANSYDDTHRDKILSNMMDDIDKDNDNDLSETADPDENNVADPEFCAANRICTRVAWHPKGLHFALPCADDTVKIFSIKGYSLQKTLSTNLSSTKAHFIDLQFDPLRGTYIAAVDLNNKLTVWNWETSEIHYTREFKRKITNIAWKIQADSKTLDLVLGTWSGSIAIVQNLAESVVSNIPDQSVAESSTKHGLFVDSESDLENLEGNDDINKSDKLFSDITQEANAEDVFTQTHDGPSGLSEKRKYNFEDEEDFIDDDDGAGYISGKKPHNEHSYSRVHKTHSFPISLANTGKFRYMPFSPAGTPFGFTDRRYLTMNEVGYVSTVKNSEQYSITVSFFDVGRFREYHFEDLFGYDLCFLNEKGTLFGQSKTGQIQYRPHDSIHSNWTKIIPLQAGERITSVAATPVRVIVGTSLGYFRSFNQFGVPFAVEKTSPIVALTAQNYRVFSVHYSQFHGLSYSLSELGTSSKRYYKRECPLPMSLPNINSDMKKDANLDYYNFNPMGIKSLFFSSYGDPCIFGSDNTLLLLSKWRSPEESKWLPILDSNMEIWKMSGGKETTDIHVWPLALAYDTLNCILVKGKHIWPEFPLPLPSEMEIRMPVFVKSKLLEENKAILNKKNEIGADTEAEEGEEDKEIQIPVSMAAEEEYLRSKVLSELLTDTLENDGEMYGNENEVLAALNGAYDKALLRLFASACSDQNVEKALSLAHELKQDRALTAAVKISERAELPSLVKKINNIREARYEQQLK
notes: Ctf4, S. cerevisiae; the results say that Ctf4 was not added to the yeast reconstitution; the general method lists Ctf4/AND-1 among the proteins added; source: endogenous Ctf4 likely co-purifying with CMG from S. cerevisiae
- stoichiometry N [2]: 3
- binding result [3]: binds
- binding result [4]: binds

B4: Pol12 (budding yeast Pol α accessory subunit) (natural protein, S. cerevisiae)
chain: MSGSIDVITHFGPDADKPEIITALENLTKLHALSVEDLYIKWEQFSNQRRQTHTDLTSKNIDEFKQFLQLQMEKRANQISSSSKVNTSTKKPVIKKSLNSSPLFGLSIPKTPTLKKRKLHGPFSLSDSKQTYNVGSEAETNEKGNSSLKLEFTPGMAEDAVGDSAPLSHAKSSDAKTPGSSTFQTPTTNTPTTSRQNVPAGEILDSLNPENIEISSGNPNVGLLSTEEPSYNQVKVEPFYDAKKYKFRTMRQNLQEASDVLDDQIESFTKIIQNHYKLSPNDFADPTIQSQSEIYAVGRIVPDSPTYDKFLNPESLSLETSRMGGVGRRVRLDLSQVNELSFFLGQIVAFKGKNANGDYFTVNSILPLPYPNSPVSTSQELQEFQANLEGSSLKVIVTCGPYFANDNFSLELLQEFIDSINNEVKPHVLIMFGPFIDITHPLIASGKLPNFPQFKTQPKTLDELFLKLFTPILKTISPHIQTVLIPSTKDAISNHAAYPQASLIRKALQLPKRNFKCMANPSSFQINEIYFGCSNVDTFKDLKEVIKGGTTSSRYRLDRVSEHILQQRRYYPIFPGSIRTRIKPKDVSTKKETNDMESKEEKVYEHISGADLDVSYLGLTEFVGGFSPDIMIIPSELQHFARVVQNVVVINPGRFIRATGNRGSYAQITVQCPDLEDGKLTLVEGEEPVYLHNVWKRARVDLIAS
notes: Pol12, S. cerevisiae; modelled residues 1-79, 203-582 and 604-705; stood in the assay as a subunit of m1; also called Pol12NTD; source: subunit of Pol α-primase from S. cerevisiae strain yAE95, purified as described previously
- binding result (Mcm3 (budding yeast)): binds
- binding result [4]: binds
